Source: patent publication US20250163116A1, “NEW METHOD TO TREAT INFECTIOUS DISEASES” (INSERM (INSTITUT NATIONAL DE LA SANTÉ ET DE LA RECHERCHE …, priority 2022, published 2025)

Columns and labels:
[1] = tested on: SCID mice grafted with human skin infected with Nm 2C4.3; assay: Vascular lesions in SCID mice grafted with human skin infected with N. meningitidis (4 h); type: in vivo; conditions: for vascular colonization of human dermal vessels at 4 hours post-infection / vessel thrombosis in skin grafts / integrity of the endothelial cell junctions (VE-cadherin staining): 1 μg/mouse i.v.; for vessel thrombosis in skin grafts: 4 h post-infection
Description: FIG. 7: ANGPTL4 reduces signs of thrombosis, vascular injury and inflammation. A-D, SCID mice grafted with human skins were infected intravenously with Nm 2C4.3 wild-type strain (5×10^6 bacteria) or left uninfected. A period of 30 min or 2 h after bacterial challenge, mice received 1 μg of recombinant human ANGPTL4, nANGPTL4 or cANGPTL4 intravenously or the vehicle as a control. Mice were killed at 4 h post-challenge. This experiment was performed twice with n=3 or 4 mice per group, using skin from two different donors. A, A schematic representation of the protocols used in vivo. B, Control bacteraemia 4 h post-infection (mean±s.e.m.). C, Bacterial colonization within the skin grafts as assessed by immunofluorescence analysis was quantified using ImageJ software as the ratio between bacterial surface colonization and the lumen surface of the vessels. A total of 30-50 vessels per mouse were analysed. Error bars show mean±s.e.m. D, Thrombus formation within the skin grafts was assessed by immunofluorescence analysis and quantified using ImageJ as the ratio between thrombus surfaces and the lumen surface of the vessels. A total of 30-50 vessels per mouse were analysed. Error bars show mean±s.e.m.; *** P<0.0001; ns P=0.0541 two-tailed Student's t-test.
Six-week-old CB17/Icr-Prkdcscid female mice were obtained from Janvier Labs. Human skin tissues were obtained from adult patients undergoing plastic surgery in the Service de Chirurgie Plastique et Reconstructive of the Groupe Hospitalier Saint-Joseph. […] Experimental procedures were performed as previously described in accordance with the guidelines of the Institut National de la Santé et de la Recherche Médicale and conformed to the European ethical legislation (Directive 2010/63/EU). The experimental protocol was approved by the Animal Experimentation Ethics Committee of the Université Paris Descartes (consent forms CEEA34.O.J.L.039.12 and 2018012515596498). […]. A skin flap was created and a full thickness human skin graft was placed onto the wound bed. The transplants were held in place with 6-0 non-absorbable monofilament suture materials, and the flap was then sutured above the transplant. Grafted mice were infected 4-6 weeks after human skin transplantation. N. meningitidis was grown overnight at 37° C. on GCB agar plates prepared without iron and supplemented with 15 μM deferoxamine (Desferal, Novartis). Bacterial colonies were harvested and cultured in RPMI media with 1% BSA medium and 0.06 μM deferoxamine with gentle agitation to reach the exponential phase of growth. Bacteria were then resuspended in physiological saline solution. Mice were infected intravenously with 200 μl (5×10^6 bacteria) of this bacterial suspension. A 10 mg dose of human holotransferrin (R&D Systems) was administered intraperitoneally just before infection. Mice were killed at 4 h after infection. Human skin grafts were carefully collected using a sterile cutter. The tissue was washed in PBS and fixed overnight at 4° C. in 4% paraformaldehyde in phosphate buffer. After washing in phosphate buffer, the specimens were embedded in OCT medium and then frozen at −80° C. Sections of the dermis (7 μm thick) were immobilized on Superfrost Plus microscope slides and subjected to immunofluorescence analysis. Sections were incubated with the primary antibodies for 1 h in PBS/3% BSA then DAPI was added to Alexa-conjugated secondary antibodies for 1 h. After additional washing, coverslips were mounted in glycergel (Dako) and were further analysed using a slide scanner (Lamina, Perkin Elmer). Analysis of the images was performed using ImageJ software (NIH). […]

[2] = tested on: Balb/c mice challenged with LPS; assay: LPS-induced endotoxemia (sepsis) in mice; type: in vivo; conditions: for sepsis-associated mortality / survival rate: 2 μg/mouse i.v.
Description: FIG. 9: ANGPTL4 protects against LPS-induced endotoxemia by preventing vascular dysfunction and organ failure. A-B, Balb/c mice received LPS (5 mg kg-1, i.p.); 30 min after LPS challenge, mice received recombinant human ANGPTL4 (2 μg, intravenously), or vehicle as a control. A, A schematic representation of the protocol used. B, Survival curve (n=16 mice per group): **** P<0.0001; two-sided log-rank Mantel-Cox survival analysis. C,D, Balb/c mice received LPS (5 mg kg-1, i.p.); 30 min after LPS challenge, mice received nANGPTL4 (2 μg, intravenously), or vehicle as a control. C, A schematic representation of the protocol used. D, Survival curve (n=6 mice per group): ** P=0.0033; two-sided log-rank Mantel-Cox survival analysis. E, F, Balb/c mice received LPS (5 mg kg-1, i.p.); 30 min after LPS challenge, mice received Peptide 1 (2 μg, intravenously), or vehicle as a control. E, A schematic representation of the protocol used. F, Survival curve (n=6 mice per group): * P=0.0163; two-sided log-rank Mantel-Cox survival analysis. G, Balb/c mice received LPS (5 mg kg-1. i.p.): 30 min after LPS challenge, mice received recombinant human peptide P9 (2 μg. intravenously). or vehicle as a control. Survival curves (n=6 mice per group). *** P<0.001: two-sided log-rank Mantel-Cox survival analysis. H. Balb/c mice received LPS (4 mg kg-1. i.p.) together with anti-ANGPTL4 blocking antibody (10 μg kg-1. i.v) or vehicle as a control. 18 h after LPS challenge. mice were perfused with Evans blue for 1 h. were killed and brain were extracted. Quantification analysis of Evans blue extravasation (n=4 mice per group). Bars and error bars show the mean±s.e.m., respectively, from two independent experiments: *** P<0.001: NS, not significant (P>0.05) one-way ANOVA Tukey's multiple comparison test.
Female BALB/c mice, obtained from Janvier Labs, 9-10 weeks of age, were administered LPS at 5 mg/kg intraperitoneally and survival was monitored for 72 h (n=12 per group). BALB/c mice were randomly divided into 2 groups: LPS and LPS+Angptl4. Angptl4 (2 μg/mice) or vehicle (physiological saline solution) was administered intravenously 30 min after LPS challenge. In some experiments, blood serum, kidney and lung were collected at 18 h post-LPS challenge. Kidney and lungs were fixed in 4% PFA, embedded in paraffin, and 5-μm sections were cut from each block and stained with H&E. The stained sections were observed and acquired using a slide scanner (Lamina, Perkin Elmer). Analysis of the images was performed using ImageJ software (NIH).
Since severe endothelial dysfunction, leading to dysregulation of hemostasis and vascular dysfunction, is central to the progression to organ failure during sepsis, we analysed whether ANGPTL4 could play a protective role in sepsis, using a lipopolysaccharide (LPS)-induced endotoxemia (FIG. 9A). After LPS-challenge (5 mg kg-1, i.p.), all mice died within two days (FIG. 9B).

[3] = 18 h post-LPS challenge, data not shown

Molecule | vascular colonization of human dermal vessels at 4 hours post-infection [1] | vessel thrombosis in skin grafts [1] | production of proinflammatory factors and biomarkers of vascular inflammation ([1]; 1 μg/mouse, data not shown) | sepsis-associated mortality / survival rate ([2]; LPS 5 mg kg-1 i.p.) | integrity of the endothelial cell junctions (VE-cadherin staining) ([1]; data not shown) | effect on inflammatory markers upon administration at 2 h ([1]; administration 2 h post-infection, data not shown) | reduction of serum levels of TNF-α, IL-6, IL-8, soluble E-selectin, ICAM-1, VCAM-1, Angiopoetin-2, Thrombomodulin ([1]; mice sera, early administration (30 min), data not shown) | LPS-induced acute lung injury (histopathology) [2, 3] | LPS-induced renal haemorrhage [2, 3] | mice surviving LPS challenge ([2]; LPS 5 mg kg-1 i.p., 2 μg/mouse i.v. 30 min after LPS, all control mice died within two days) | overall weight loss ([2]; compared to vehicle-treated control groups) | body temperature ([2]; data not shown)
cANGPTL4: C-terminal fragment of ANGPTL4, aa 164-406, fibrinogen-like domain, purchased from R&D Systems (protein, listed as Homo sapiens) RLPEMAQPVDPAHNVSRLHRLPRDCQELFQVGERQSGLFEIQPQGSPPFLVNCKMTSDGGWTVIQRRHDGSVDFNRPWEAYKAGFGDPHGEFWLGLEKVHSITGDRNSRLAVQLRDWDGNAELLQFSVHLGGEDTAYSLQLTAPVAGQLGATTVPPSGLSVPFSTWDQDHDLRRDKNCAKSLSGGWWFGTCSHSNLNGQYFRSIPQQRQKLKKGIFWKTWRGRYYPLQATTMLIQPMAAEAAS | no effect on vascular colonization | reduced vessel thrombosis | most efficient at preventing the production of proinflammatory factors and biomarkers of vascular inflammation | did not significantly increased the survival rate |  |  |  |  |  |  |  | 
nANGPTL4: N-terminal fragment of ANGPTL4, aa 26-164, SEQ ID NO: 24, purchased from R&D Systems (protein, nANGPTL4) GPVQSKSPRFASWDEMNVLAHGLLQLGQGLREHAERTRSQLSALERRLSACGSACQGTEGSTDLPLAPESRVDPEVLHSLQTQLKAQNSRIQQLFHKVAQQQRHLEKQHLRIQHLQSQFGLLDHKHLDHEVAKPARRK | no effect on vascular colonization | reduced vessel thrombosis |  | reduced sepsis-associated mortality rate as efficiently as the full-length protein | preserved the integrity of the endothelial cell junctions |  |  |  |  |  |  | 
ANGPTL4: Recombinant human ANGPTL4 (Angiopoietin-like 4), full length, SEQ ID NO: 1, purchased from R&D Systems (protein, listed as Homo sapiens) MSGAPTAGAALMLCAATAVLLSAQGGPVQSKSPRFASWDEMNVLAHGLLQLGQGLREHAERTRSQLSALERRLSACGSACQGTEGSTDLPLAPESRVDPEVLHSLQTQLKAQNSRIQQLFHKVAQQQRHLEKQHLRIQHLQSQFGLLDHKHLDHEVAKPARRKRLPEMAQPVDPAHNVSRLHRLPRDCQELFQVGERQSGLFEIQPQGSPPFLVNCKMTSDGGWTVIQRRHDGSVDFNRPWEAYKAGFGDPHGEFWLGLEKVHSITGDRNSRLAVQLRDWDGNAELLQFSVHLGGEDTAYSLQLTAPVAGQLGATTVPPSGLSVPFSTWDQDHDLRRDKNCAKSLSGGWWFGTCSHSNLNGQYFRSIPQQRQKLKKGIFWKTWRGRYYPLQATTMLIQPMAAEAAS |  | largely reduced vessel thrombosis |  | markedly reduced sepsis-associated mortality rate | preserved the integrity of the endothelial cell junctions | no effect | 60-80% | no pathological signs | no sign of haemorrhage | 80% | not significantly reduced | rapidly stabilized
